Test results reported in US4285932A, “Enzyme derivatives for use in the treatment of venous thrombosis” (Beecham Group Limited, priority 1978, dated 1981).

B1: 3 Methyl 4-methoxybenzoyl: human plasmin, active site serine blocked by 3-methyl-4-methoxybenzoyl (acylating agent of Example 17) (protein, UniProt P00747 20-580; P00747 581-810, looked up)
Plasmin heavy chain A: EPLDDYVNTQGASLFSVTKKQLGAGSIEECAAKCEEDEEFTCRAFQYHSKEQQCVIMAENRKSSIIIRMRDVVLFEKKVYLSECKTGNGKNYRGTMSKTKNGITCQKWSSTSPHRPRFSPATHPSEGLEENYCRNPDNDPQGPWCYTTDPEKRYDYCDILECEEECMHCSGENYDGKISKTMSGLECQAWDSQSPHAHGYIPSKFPNKNLKKNYCRNPDRELRPWCFTTDPNKRWELCDIPRCTTPPPSSGPTYQCLKGTGENYRGNVAVTVSGHTCQHWSAQTPHTHNRTPENFPCKNLDENYCRNPDGKRAPWCHTTNSQVRWEYCKIPSCDSSPVSTEQLAPTAPPELTPVVQDCYHGDGQSYRGTSSTTTTGKKCQSWSSMTPHRHQKTPENYPNAGLTMNYCRNPDADKGPWCFTTDPSVRWEYCNLKKCSGTEASVVAPPPVVLLPDVETPSEEDCMFGNGKGYRGKRATTVTGTPCQDWAAQEPHRHSIFTPETNPRAGLEKNYCRNPDGDVGGPWCYTTNPRKLYDYCDVPQCAAPSFDCGKPQVEPKKCPGR
Plasmin light chain B: VVGGCVAHPHSWPWQVSLRTRFGMHFCGGTLISPEWVLTAAHCLEKSPRPSSYKVILGAHQEVNLEPHVQEIEVSRLFLEPTRKDIALLKLSSPAVITDKVIPACLPSPNYVVADRTECFITGWGETQGTFGAGLLKEAQLPVIENKVCNRYEFLNGRVQSTELCAGHLAGGTDSCQGDSGGPLVCFEKDKYILQGVTSWGLGCARPNKPGVYVRVSRFVTWIEGVMRNN
modifications: plasmin 3-methyl-4-methoxybenzoyl acylated active site
B2: 2,4 Dimethoxybenzoyl: human plasmin, active site serine blocked by 2,4-dimethoxybenzoyl (acylating agent of Example 6) (protein, UniProt P00747 20-580; P00747 581-810, looked up)
Plasmin heavy chain A: EPLDDYVNTQGASLFSVTKKQLGAGSIEECAAKCEEDEEFTCRAFQYHSKEQQCVIMAENRKSSIIIRMRDVVLFEKKVYLSECKTGNGKNYRGTMSKTKNGITCQKWSSTSPHRPRFSPATHPSEGLEENYCRNPDNDPQGPWCYTTDPEKRYDYCDILECEEECMHCSGENYDGKISKTMSGLECQAWDSQSPHAHGYIPSKFPNKNLKKNYCRNPDRELRPWCFTTDPNKRWELCDIPRCTTPPPSSGPTYQCLKGTGENYRGNVAVTVSGHTCQHWSAQTPHTHNRTPENFPCKNLDENYCRNPDGKRAPWCHTTNSQVRWEYCKIPSCDSSPVSTEQLAPTAPPELTPVVQDCYHGDGQSYRGTSSTTTTGKKCQSWSSMTPHRHQKTPENYPNAGLTMNYCRNPDADKGPWCFTTDPSVRWEYCNLKKCSGTEASVVAPPPVVLLPDVETPSEEDCMFGNGKGYRGKRATTVTGTPCQDWAAQEPHRHSIFTPETNPRAGLEKNYCRNPDGDVGGPWCYTTNPRKLYDYCDVPQCAAPSFDCGKPQVEPKKCPGR
Plasmin light chain B: VVGGCVAHPHSWPWQVSLRTRFGMHFCGGTLISPEWVLTAAHCLEKSPRPSSYKVILGAHQEVNLEPHVQEIEVSRLFLEPTRKDIALLKLSSPAVITDKVIPACLPSPNYVVADRTECFITGWGETQGTFGAGLLKEAQLPVIENKVCNRYEFLNGRVQSTELCAGHLAGGTDSCQGDSGGPLVCFEKDKYILQGVTSWGLGCARPNKPGVYVRVSRFVTWIEGVMRNN
modifications: plasmin 2,4-dimethoxybenzoyl acylated active site
B3: O-Toloyl: human plasmin, active site serine blocked by o-toluoyl (acylating agent of Example 9) (protein, UniProt P00747 20-580; P00747 581-810, looked up)
Plasmin heavy chain A: EPLDDYVNTQGASLFSVTKKQLGAGSIEECAAKCEEDEEFTCRAFQYHSKEQQCVIMAENRKSSIIIRMRDVVLFEKKVYLSECKTGNGKNYRGTMSKTKNGITCQKWSSTSPHRPRFSPATHPSEGLEENYCRNPDNDPQGPWCYTTDPEKRYDYCDILECEEECMHCSGENYDGKISKTMSGLECQAWDSQSPHAHGYIPSKFPNKNLKKNYCRNPDRELRPWCFTTDPNKRWELCDIPRCTTPPPSSGPTYQCLKGTGENYRGNVAVTVSGHTCQHWSAQTPHTHNRTPENFPCKNLDENYCRNPDGKRAPWCHTTNSQVRWEYCKIPSCDSSPVSTEQLAPTAPPELTPVVQDCYHGDGQSYRGTSSTTTTGKKCQSWSSMTPHRHQKTPENYPNAGLTMNYCRNPDADKGPWCFTTDPSVRWEYCNLKKCSGTEASVVAPPPVVLLPDVETPSEEDCMFGNGKGYRGKRATTVTGTPCQDWAAQEPHRHSIFTPETNPRAGLEKNYCRNPDGDVGGPWCYTTNPRKLYDYCDVPQCAAPSFDCGKPQVEPKKCPGR
Plasmin light chain B: VVGGCVAHPHSWPWQVSLRTRFGMHFCGGTLISPEWVLTAAHCLEKSPRPSSYKVILGAHQEVNLEPHVQEIEVSRLFLEPTRKDIALLKLSSPAVITDKVIPACLPSPNYVVADRTECFITGWGETQGTFGAGLLKEAQLPVIENKVCNRYEFLNGRVQSTELCAGHLAGGTDSCQGDSGGPLVCFEKDKYILQGVTSWGLGCARPNKPGVYVRVSRFVTWIEGVMRNN
modifications: plasmin o-toluoyl acylated active site
B4: p-Ethoxybenzoyl: human plasmin, active site serine blocked by p-ethoxybenzoyl (acylating agent of Example 8) (protein, UniProt P00747 20-580; P00747 581-810, looked up)
Plasmin heavy chain A: EPLDDYVNTQGASLFSVTKKQLGAGSIEECAAKCEEDEEFTCRAFQYHSKEQQCVIMAENRKSSIIIRMRDVVLFEKKVYLSECKTGNGKNYRGTMSKTKNGITCQKWSSTSPHRPRFSPATHPSEGLEENYCRNPDNDPQGPWCYTTDPEKRYDYCDILECEEECMHCSGENYDGKISKTMSGLECQAWDSQSPHAHGYIPSKFPNKNLKKNYCRNPDRELRPWCFTTDPNKRWELCDIPRCTTPPPSSGPTYQCLKGTGENYRGNVAVTVSGHTCQHWSAQTPHTHNRTPENFPCKNLDENYCRNPDGKRAPWCHTTNSQVRWEYCKIPSCDSSPVSTEQLAPTAPPELTPVVQDCYHGDGQSYRGTSSTTTTGKKCQSWSSMTPHRHQKTPENYPNAGLTMNYCRNPDADKGPWCFTTDPSVRWEYCNLKKCSGTEASVVAPPPVVLLPDVETPSEEDCMFGNGKGYRGKRATTVTGTPCQDWAAQEPHRHSIFTPETNPRAGLEKNYCRNPDGDVGGPWCYTTNPRKLYDYCDVPQCAAPSFDCGKPQVEPKKCPGR
Plasmin light chain B: VVGGCVAHPHSWPWQVSLRTRFGMHFCGGTLISPEWVLTAAHCLEKSPRPSSYKVILGAHQEVNLEPHVQEIEVSRLFLEPTRKDIALLKLSSPAVITDKVIPACLPSPNYVVADRTECFITGWGETQGTFGAGLLKEAQLPVIENKVCNRYEFLNGRVQSTELCAGHLAGGTDSCQGDSGGPLVCFEKDKYILQGVTSWGLGCARPNKPGVYVRVSRFVTWIEGVMRNN
modifications: plasmin p-ethoxybenzoyl acylated active site
B5: p-Fluorobenzoyl: porcine plasmin, active site serine blocked by p-fluorobenzoyl (protein, UniProt P06867 20-579; P06867 580-809, looked up)
Plasmin heavy chain A: DSLDDYVNTQGAFLFSLSRKQVAARSVEECAAKCEAETNFICRAFQYHSKDQQCVVMAENSKTSPIARMRDVVLFEKRIYLSECKTGNGKNYRGTTSKTKSGVICQKWSVSSPHIPKYSPEKFPLAGLEENYCRNPDNDEKGPWCYTTDPETRFDYCDIPECEDECMHCSGEHYEGKISKTMSGIECQSWGSQSPHAHGYLPSKFPNKNLKMNYCRNPDGEPRPWCFTTDPNKRWEFCDIPRCTTPPPTSGPTYQCLKGRGENYRGTVSVTASGHTCQRWSAQSPHKHNRTPENFPCKNLEENYCRNPDGETAPWCYTTDSEVRWDYCKIPSCGSSTTSTEYLDAPVPPEQTPVAQDCYRGNGESYRGTSSTTITGRKCQSWVSMTPHRHEKTPGNFPNAGLTMNYCRNPDADKSPWCYTTDPRVRWEYCNLKKCSETEQQVTNFPAIAQVPSVEDLSEDCMFGNGKRYRGKRATTVAGVPCQEWAAQEPHRHSIFTPETNPRAGLEKNYCRNPDGDDNGPWCYTTNPQKLFDYCDVPQCVTSSFDCGKPKVEPKKCPAR
Plasmin light chain B: VVGGCVSIPHSWPWQISLRHRYGGHFCGGTLISPEWVLTAKHCLEKSSSPSSYKVILGAHEEYHLGEGVQEIDVSKLFKEPSEADIALLKLSSPAIITDKVIPACLPTPNYVVADRTACYITGWGETKGTYGAGLLKEARLPVIENKVCNRYEYLGGKVSPNELCAGHLAGGIDSCQGDSGGPLVCFEKDKYILQGVTSWGLGCALPNKPGVYVRVSRFVTWIEEIMRRN
modifications: plasmin p-fluorobenzoyl acylated active site
B6: p-Methyl-t-cinnamoyl: porcine plasmin, active site serine blocked by p-methyl-trans-cinnamoyl (protein, UniProt P06867 20-579; P06867 580-809, looked up)
Plasmin heavy chain A: DSLDDYVNTQGAFLFSLSRKQVAARSVEECAAKCEAETNFICRAFQYHSKDQQCVVMAENSKTSPIARMRDVVLFEKRIYLSECKTGNGKNYRGTTSKTKSGVICQKWSVSSPHIPKYSPEKFPLAGLEENYCRNPDNDEKGPWCYTTDPETRFDYCDIPECEDECMHCSGEHYEGKISKTMSGIECQSWGSQSPHAHGYLPSKFPNKNLKMNYCRNPDGEPRPWCFTTDPNKRWEFCDIPRCTTPPPTSGPTYQCLKGRGENYRGTVSVTASGHTCQRWSAQSPHKHNRTPENFPCKNLEENYCRNPDGETAPWCYTTDSEVRWDYCKIPSCGSSTTSTEYLDAPVPPEQTPVAQDCYRGNGESYRGTSSTTITGRKCQSWVSMTPHRHEKTPGNFPNAGLTMNYCRNPDADKSPWCYTTDPRVRWEYCNLKKCSETEQQVTNFPAIAQVPSVEDLSEDCMFGNGKRYRGKRATTVAGVPCQEWAAQEPHRHSIFTPETNPRAGLEKNYCRNPDGDDNGPWCYTTNPQKLFDYCDVPQCVTSSFDCGKPKVEPKKCPAR
Plasmin light chain B: VVGGCVSIPHSWPWQISLRHRYGGHFCGGTLISPEWVLTAKHCLEKSSSPSSYKVILGAHEEYHLGEGVQEIDVSKLFKEPSEADIALLKLSSPAIITDKVIPACLPTPNYVVADRTACYITGWGETKGTYGAGLLKEARLPVIENKVCNRYEYLGGKVSPNELCAGHLAGGIDSCQGDSGGPLVCFEKDKYILQGVTSWGLGCALPNKPGVYVRVSRFVTWIEEIMRRN
modifications: plasmin p-methyl-trans-cinnamoyl acylated active site

What follows are molecules tested on Human Plasmin (assay: Deacylation (hydrolysis) of active-site blocked human plasmin, pseudo-first order rate constant followed by regain of activity on chromogenic substrate S-2251). Details: active site serine substituted human plasmin; pH 7.4, 37° C.
Format: biochemical
Description: (§1) The pseudo-first order rate constant is determined by hydrolysing the enzyme derivative under physiological conditions i.e. in isotonic aqueous media at pH 7.4 and at 37° C. At regular intervals aliquots are withdrawn and incubated with a chromogenic or fluorogenic protease substrate such as S-2251 (H-D-Val-Leu-Lys-p-nitroanilide 2HCl) and the rate of conversion of the substrate measured.
(§2) The hydrolysis is followed until such time as the rate of conversion of substrate reaches a maximum. The rate constant k is then calculated by plotting: […]
(§3) loge (1-^At /Amax) against t
(§4) where Amax the maximum rate at which an aliquot converts substrate and At is the rate at which an aliquot converts substrate at time t.

First: B1
Second: B2
The “Deacylation rate, Human Plasmin K sec^-1 × 10^4” value of the first is lower: 0.70 sec^-1 × 10^4 for the first, 1.10 sec^-1 × 10^4 for the second.

Compared with B3, B4 is lower in “Deacylation rate, Human Plasmin K sec^-1 × 10^4” value: 1.71 sec^-1 × 10^4 for the first, 1.10 sec^-1 × 10^4 for the second.

Each molecule was assayed on Porcine Plasmin (assay: Deacylation (hydrolysis) of active-site blocked porcine plasmin, pseudo-first order rate constant followed by regain of activity on chromogenic substrate). Details: active site serine substituted porcine plasmin; pH 7.4, 37° C.
Format: biochemical
Description: as §1, §2, §3, §4

Going from B5 to B6, the “Deacylation rate, Porcine Plasmin K sec^-1 × 10^4” value falls from 3.30 sec^-1 × 10^4 to 2.92 sec^-1 × 10^4.
